Key:
murine CCR2 (murine) = murine CCR2 (murine) (UniProt P51683); assay: cell-based or functional assay
[1] = target: human CCR2 (CC-Chemokine Receptor 2) (human) (UniProt P41597); assay: cell-based or functional assay
Sequence of human CCR2 (CC-Chemokine Receptor 2) (human) (P41597 whole entry): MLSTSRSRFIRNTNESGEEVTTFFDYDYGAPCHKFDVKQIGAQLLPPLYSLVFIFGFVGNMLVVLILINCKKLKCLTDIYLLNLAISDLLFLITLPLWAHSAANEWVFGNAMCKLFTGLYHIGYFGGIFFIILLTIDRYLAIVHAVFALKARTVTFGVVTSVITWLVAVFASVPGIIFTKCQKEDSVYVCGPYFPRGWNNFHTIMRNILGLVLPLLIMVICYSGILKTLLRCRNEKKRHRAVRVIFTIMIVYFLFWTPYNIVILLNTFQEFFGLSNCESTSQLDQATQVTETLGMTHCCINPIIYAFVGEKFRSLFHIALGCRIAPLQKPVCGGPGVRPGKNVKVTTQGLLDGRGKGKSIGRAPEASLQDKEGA

Sequence of murine CCR2 (murine) (P51683 whole entry): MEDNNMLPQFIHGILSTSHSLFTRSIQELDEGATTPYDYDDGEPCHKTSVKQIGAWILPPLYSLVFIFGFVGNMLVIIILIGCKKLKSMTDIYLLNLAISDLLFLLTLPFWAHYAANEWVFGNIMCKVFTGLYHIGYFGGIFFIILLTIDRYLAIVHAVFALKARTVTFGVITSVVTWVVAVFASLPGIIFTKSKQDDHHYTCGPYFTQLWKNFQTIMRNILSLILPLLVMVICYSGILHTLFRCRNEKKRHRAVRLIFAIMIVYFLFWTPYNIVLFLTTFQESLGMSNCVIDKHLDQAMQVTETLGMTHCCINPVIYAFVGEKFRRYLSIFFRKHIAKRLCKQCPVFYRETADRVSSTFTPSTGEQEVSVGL

EC50 of mMCP-1, mMCP-1-induced chemotaxis, WEHI 274.1 cells (murine CCR2 (murine)) | EC50 of MCP-1, MCP-1-induced calcium flux, THP-1 cells [1] | EC50 of MCP-1, MCP-1-induced calcium flux, primary human monocytes [1] | EC50 of MCP-1, MCP-1-induced chemotaxis, THP-1 cells [1] | EC50 of MCP-1, MCP-1-induced chemotaxis, primary human monocytes [1] | Substance
0.12 nM | – | – | – | – | mMCP-1 (mouse MCP-1) (from UniProt P10148 24-148) (ligand)
– | 3.3 nM | 3.79 nM | 0.8 nM | 0.389 nM | human MCP-1 (PROSPEC # CHM-271) (from UniProt P13500 24-99) (ligand)
